Source: the DeepSol protein solubility set

Assay: soluble on expression in E. coli; label from the status in PepcDB or PDB records

| Sequence | soluble on expression in E. coli |
| --- | --- |
| MKVLLINGSPHAKGCTYTALSEVAKALEEENIETEIFQIGTKPVRGCIGCGTCSKTGSGKCVFDDDTLNAGLEKAKTADGFIFGSPVHYAAASGALTSFLDRFFYAGKDFAYKPGAAIVSCRRGGAAAAFDQLNKYFTIANMPIVSSQYWNMVHGNTPEEVKQDLEGMQTMRTLGKNMAWLLKSIQAGKEAGVKLPEKEQTIRTNFIRLEHHHHHH | soluble |
| MDSGLKALEAVLAIARKGSFRAAALDLGVSTTALSHTVARLEAGLGVRLFHRTTRSVALTEAGREFVARIAPALTEIRAALETVRSQRATPSGMLRINASVQAGRAVAPLVLAFLRRYPEMRVDLVTEGRLLDIVAEGFDMGIRPADLVPRDMIALPLGLPVRHAVVASPDWLVRHPEPRSPADLDPDACLRVRLPNGALLRWPFQKDGVPLPFEASGRLTVDEAAIARAAVLDGAGIGYFIEADVAEDIAAGRMIRLLEDWTPNRPGFSLYYSGRRNPSAGFTAFLAMAREREAA | not soluble |
| MEFGASFAYRRIDAHVEATLQEAAQVLEKLVIERDAESAITVASQGTPDAISITQAAHETISIDSILRSSKQPKATIRTPRDSNKNRKLTFPPARIGFKSEQLETCDSGITDSTIDQDPPTPDSLFPSAIYIPAKQKPQMTVSISATTASSCSNKSLYRKHIEKLAIEPLEDIKHLKCRGLKKSKPDDLFPKATYDAGTGKPKMALSPSSMVSVDLSYASTTAKSNSLAYQPMEFVSSDGRVKLWLQPLEKQKKKNSEKSKKRERCIDDAPIPPKQLQSSTKLNIENRTKFSTNLSIGDHVIDLSGILNGSMKKKNLAKLVINGQSYSI | not soluble |
| MKGRDVVLGLLMQKELSGYDIKIVFEDVFTHFFDGSFGMIYPTLRQLENEGKIKKEVVMQEGKPNKKMYFITDEGREEFYQYMQTPVEKDVLRSDFLMRMYFGNYSDDVTIKKWIKDEIERKEAYIADLRLKYEKWRVGITFVEEISLDVGIASYSAQVETLKKKLEELEAKENNKTEE | soluble |
| MSLFHREDFSKALLKKALQPGMRVMDIGCGSGELTRLAADIVGKEGDVVGIDINEQLLWQARHDNGYANVSYQNADLAALSSFETKSFDAIIGRRVLMYQKDPKKVIESLTPLLKPNGFYVFQESDAMCLELAKPSFVNMNKIQSLIWQTVEKEGGHIHIGSQLEQLMLEAGLIVDHFVSENVIQTSQTGTDLSWLLNIMKERIQKYSDLQGLEDVNLQKELEENNDHFIRDCQFGIISHRVDEGHHHHHH | soluble |
| MSWQLALYNGLWRALTPLVRRYLKKRARKAPAYLEHWDERFGQALSPSATGAIWIHAVSVGETRAAQPLVAAIRREWPDAPLLLTQMTPTGRATAEQLYPDAEVRYLPYDYPQAAADFLRAYRPRCGVLMETEIWPNLIHAAAAQRIPLLLANARLSEKSLNGYRKIAGLISPAIAKLTAVAAQTAEDADRLRQLGARSVSVCGSSKYDIEVPEAQRHLAADFRAMAGGRRALLCASTRDGEEALILDAWLAAGAAVGDTLLVLVPRHPERWDEVEKLAAERGLKSQRRSGGAAIAADTRVWLGDSMGEMFGYLGACDVAFIGGSLLPYGCHNLIEPAQVGVPALFGPSVFNFQQAAADSLAAGAGRQVGDAAALVSTALSLMDDPAAGEAMRQGAVRFRDAHRGASERMLALIREAMSAGSEKLEHHHHHH | not soluble |
| MKYLGLCTDLYELTMAQSYLYEGKTGTAVFSLFVRKLPEKRNFLISAGLETLVERIKNFKFGDEEIKYLKSLGIFKDDFLDYLKDFEFSGNVYAIPEGRIVFQNEPLVQVEAPIPEAQLLETLVINTIQFETMIASKAVRSYLVAKGKKLVDFGFRRAHGLEAGILAARASYIAGFDGTSNVEAGREFGIPVVGTMAHSYVMIFDKEEDAFRAFAKLYPKNAIFLIDTYDTIEAAKKVVDLAKEGVPVVGVRIDSGDIVKLSKEVRKILDENGLKNVRIIVSGGVDEYKIKEWFDRGAPIDAFGVGTKFITSADAPYFDIAYKLVEYEGKPKYKLSPGKKTFPYKRQVYRYYENGKMKYDETAKWESKREGEPLVELVMKNGKLIKELPSLKEIREVVMSELEKLPENYKDITKHYEYEVKILDWE | soluble |
| MKSFIKIHKQDNVLLALRYIQKGERLHAYGVSIEVKDDIKRGHKIALQSIKENDSIVKYGFPIGHASQDISIGEHIHVHNTKTNLSDIQLYSYTPRFDENPYSNENRTFKGFRRENGDAGVRNELWIVPTVGCVNGIAEKMLQRFVRETGDIAPFDNVLVLKHQYGCSQLGDDHENTKQILLNAIRHPNAGGVLVLGLGCENNELARMKEALQDVNLKRVKFLESQSVTDEMEAGVALLKEIHEAAKGDKREDIPLSELKIGLKCGGSDGFSGITANPLLGRFSDYLIAQGGSTVLTEVPEMFGAETILMQRAANEEVFHKIVDLINDFKQYFIKHDQPVYENPSPGNKAGGISTLEDKSLGCTQKAGISPVTDVLKYGEVLKTKGLTLLSAPGNDLIASSALAAAGCQIVLFTTGRGTPFGTFVPTVKVATNTELYEAKPHWIDFNAGLLAEDDVHEEYVLREFIHYMIEVASGQLVNHEKNDFKELAIFKSGVTL | not soluble |
| MRQSTLHTRLSTGPGGSMRSSIEIFNIRTRKMRVVWQTPELFEAPNWSPDGKYLLLNSEGLLYRLSLAGDPSPEKVDTGFATICNNDHGISPDGALYAISDKVEFGKSAIYLLPSTGGTPRLMTKNLPSYWHGWSPDGKSFTYCGIRDQVFDIYSMDIDSGVETRLTHGEGRNDGPDYSPDGRWIYFNSSRTGQMQIWRVRVDGSSVERITDSAYGDWFPHPSPSGDKVVFVSYDADVFDHPRDLDVRVQLMDMDGGNVETLFDLFGGQGTMNSPNWSPDGDEFAYVRYFPVE | soluble |
| SAALRYAGLDDTDSEDELPPGWEERTTKDGWVYYANHTEEKTQWEHPKTGKRKRVAGDLPYGWEQETDENGQVFFVDHINKRTTYLDPRLAFTVDDNPTKPTTRQRYDGSTTAMEILQGRDFTGKVVVVTGANSGIGFETAKSFALHGAHVILACRNMARASEAVSRILEEWQQGAATTVYCAAVPELEGLGGMYFNNCCRCMPSPEAQSEETARTLWALSERLIQERLGSQSG | soluble |
| MSLFKEERTMTNYTVDTLNLGKFITESGEVIDNLRLRYEHVGYHGQPLVVVCHALTGNHLTYGTDDYPGWWREIIDGGYIPIHDYQFLTFDVIGSPFGSSSPLNDPHFPKKLTLRDIVRANERGIQALGYDKINILIGGSLGGMQAMELLYNQQFEVDKAIILAATSRTSSYSRAFNEIARQAIHLGGKEGLSIARQLGFLTYRSSKSYDERFTPDEVVAYQQHQGNKFKEHFDLNCYLTLLDVLDSHNIDRGRTDVTHIFKNLETKVLTMGFIDDLLYPDDQVRALGERFKYHRHFFVPDNVGHDGFLLNFSTWAPNLYHFLNLKHFKRKEGHHHHHH | soluble |
| MVQQKIANLLQGDFRYQIQYNWVSLENISPNIQLAVISSEDQRFLEHLGFDFEAIQRAIRYNEKSNKGIRGASTISQQTAKNLMLWHGQNWLRKGLEVPATMLLELTWSKKRILEVYLNIAEFGNGIFGVEAASRYYFKKSAKNLSQNEAALLAAVLPNPIIYKVNKPSLLVRKKQTWILRQMGNLGTEYLSHL | not soluble |
| MENPPAEPFFLDASPGKRFCLYHSPAGDTPLNQVFIYLHPFAEEMNKSRRMAALQAKAFAAMGFGVLQIDLYGCGDSAGDFGEATWEIWKNDVEFAYQWLIQQGFTSVHFWGLRLGALLALDYAGKAETGSAKFILWQPVINGKSFLTQFLRLRLVNKLLSDDSDKAQNVHLREELRAGKSLEIAGYTLSPAMAAAIDELKLGQLVVGNSEIYWFEITPEAGRGLPPAGAAVVEAWNQSGVYPEVTLIPGLPFWATQEISECPALLAATAKLFAGIQP | not soluble |
| MSLDLFSVRMRAQKNGKHVSGAERIVKKEELETAVKELLNRPKEFDFMNVKVEKVKDFEVVKFNLKISTYSFKSPEEAREFAVKKLTQEGIKEEVAKKAVEILSKGANPKGGNMRGAVLMDIETGERLEEDKERGVRTIHFDWKDRKKVTEKLLKEGYTLRTVDALALTFKNLFCGVVAELCWSDDPDYVTGYVSGKEIGYVRITPLKEKGDPLGGRVYFVSRKELSEIIECLTQKVVLIELEGHHHHHH | soluble |
| MAHHHHHHMNDERVLFLTSSTCITICENQIGIDVLLKTDILHNAVILCESANPDLAFEALSIISKIAYAANHQQICILISCNVIKALKKILNNMKIKPGARARACNALGNIGCETASEVELLIKNDVFPLLVDIFQTDNDFNTKIEAAYAVCACLSKANQKQVGYIISCTATTNRLGQNICMQLIADMLELVSESDPMNNGSVKLCKSILRGLENILDKGDDETRDLSLWENPYVFMFKEVQGDIKLFQMQFFPEYYVVNKTYDILAKYFSLTSTWNNRK | not soluble |
| ARGVKGHVRVLANTTAMTEFMPAVLARYLAAHPDVNVELRERLSYLVVRAVADGSADIGVVAGCAPDQKLQFIPYRKDRLVVVTPAGHRLAAEESVAFADTLADDYVGLSEWSAIHPFLVQAAASLGRTFKFRVEVGNFEAVCRMIESG | not soluble |
| MEYKPIRKVVSGNYAAAYAALHARVQVVAAYPITPQTSIIEKIAEFIANGEADIQYIPVESEHSAMAACIGASATGARTFTATSAQGLALMHEMLHWAAGARLPIVMVDVNRAMAPPWSVWDDQTDSLSQRDTGWMQFYAENNQEVYDGVLMAYKVAETVNVPAMVVESAFILSHTYDVVEMIPQELVDEFLPPRKPLYSLANFDEPIAVGALATPNDYYEFRYKLAKAHEEAKKVIKEVGKEFGERFGRDYSQMIETGYIDDADFVFMGMGSLMGTVKEAVDLLRKEGYKVGYAKVRWFRPFPKEELVEIAESVKGIAVLDRNFSFGQEGILFTESKGALYNSSAHPLMKNYIVGLGGRDVTVKDIKAIADDMKKVIESGKVDKEVVWYHLKR | not soluble |
| MGSDKIHHHHHHMEKKVICQDIFWSCDGTSFVSVHNDFGIRQYLVPEESNTDKLNRNLLLPFTRFFRNQSIVSCAIDPFYTLYNENSDRLAGDRIVVGGKNFPLQLYSLMDGQCILSYDTMNKINGEYETVYSVKIDVESRVYTGSCRNKVAIYDKSRRDAVWMNQSTKKASKGRQSIISCFEEQPMGGQALSRGSLLCGSYANEMFQVDCRHQRLERLNYTRTVAGGIVQILTSDNGRYVYVVRRNSDAISIYDRRNLQHELNVLRLPFRIHHNSAKLKAYIDTAYGLSMGTPQGTILNWGRDLVEFGGVPSHNSVEDPLITSIPPESEWRTNLDSTIPATVVKNCPGDPELFALSHGGTISLCRFGG | not soluble |
| GHMTWEHNEFMQMTVKPFLIPADKVAHVQPGNYLDHALLVLTKTGYSAIPVLDTSYKLHGLISMTMMMDAILGLERIEFERLETMKVEEVMNRNIPRLRLDDSLMKAVGLIVNHPFVCVENDDGYFAGIFTRREVLKQLNKQLHRPNGGRKLGRKEAEQ | soluble |
| MSLSIVEPDLENCFRILIATDNHIGYAEKDPVRGQDSINTFREILELARDHDVDFILLAGDLFHENRPSRTCMHQTIALLREFTLGDKPIEFELLSDPMDGSTPGFSFPAVNYEDPNINIAIPVFSIHGNHDDPQGTGPEGALCALDVLSVSGVLNYFGKSDLVADENAADNPEKGIQIRPVLLRKGTTHVALYGCGNIRDQRMYQELRANKVKMFMPTGGNVPDSEWFNILLVHQNRVRHGPQNYVPENMFDDSMRLVIWGHEHDCRITPESVADKSYFITQPGSSVATSLAPGEAIPKHVGLLSIQGSQFQLEEIPLKTVRPFELDEVVLSYAAEQGAVDLNDRDSITSFLREQVEALILQAKKEGHHHHHH | not soluble |
| MGSDKIHHHHHHENLYFQGMRYLSKDILEEVITQRPSDSYKSNFGRVVLIGGNRQYGGAIIMSTEACINSGAGLTTVITDVKNHGPLHARCPEAMVVGFEETVLLTNVVEQADVILIGPGLGLDATAQQILKMVLAQHQKQQWLIIDGSAITLFSQGNFSLTYPEKVVFTPHQMEWQRLSHLPIEQQTLANNQRQQAKLGSTIVLKSHRTTIFHAGEPFQNTGGNPGMATGGTGDTLAGIIAGFLAQFKPTIETIAGAVYLHSLIGDDLAKTDYVVLPTKISQALPTYMKKYAQPHTAPDSELLEQKRSR | soluble |
